# Assay results: patent publication US8242240B2, “Anti-inflammatory compounds and uses thereof” (Yale University, priority 2000, dated 2012)
# Tests used:
# [1] = biological target: T1, endogenous IKK complex (Homo sapiens, UniProt Q9Y6K9); assay: Anti-NEMO immunoprecipitation of the IKK complex from peptide-treated HeLa cells; format: cell-based; settings: peptide 200 μM, anti-NEMO IP, anti-IKKβ blot
# T1 construct: wild-type but not mutant disrupted the formation of the endogenous IKK complex; endogenous in cells; host or cells: HeLa
# T1 sequence (Q9Y6K9 whole entry, one chain of several): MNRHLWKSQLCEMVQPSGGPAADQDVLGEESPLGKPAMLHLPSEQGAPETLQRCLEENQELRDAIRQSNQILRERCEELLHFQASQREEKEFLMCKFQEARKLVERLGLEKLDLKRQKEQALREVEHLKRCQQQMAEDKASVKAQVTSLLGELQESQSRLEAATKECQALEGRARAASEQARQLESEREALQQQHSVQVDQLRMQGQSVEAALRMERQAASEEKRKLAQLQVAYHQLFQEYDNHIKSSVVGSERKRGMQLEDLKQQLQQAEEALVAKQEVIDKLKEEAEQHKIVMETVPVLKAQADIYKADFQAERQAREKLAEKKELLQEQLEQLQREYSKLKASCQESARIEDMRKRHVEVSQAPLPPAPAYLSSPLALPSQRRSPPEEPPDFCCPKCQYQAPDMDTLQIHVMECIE
# Method: (A) Sequences of wild-type (SEQ ID NO:18) and mutant (SEQ ID NO:19 forms of IKKβ NBD peptide. (B) GST-pull-down analysis was performed using either GST-NEMO-in vitro translated IKKβ (upper panel) or GST-IKKβ-(644-756)-in vitro translated NEMO (lower panel). The assay was performed in the absence (no peptide) or presence of increasing concentrations ([…], 500 or 1000 μM) of either mutant (MUT) (SEQ ID NO:19) or wild-type (WT) NBD (SEQ ID NO:18). (C) HeLa cells were incubated with either peptide (200 μM) for the times indicated. Following lysis, the IKK complex was immunoprecipitated using anti-NEMO and the resulting immunoblot probed with anti-IKKβ. (D) Gel image showing anti-NEMO immunoprecipitation. (E) Gel image showing anti-FLAG immunoblot. (F) HeLa cells were incubated for three hours with increasing concentrations: 50, 100 or 200 μM) of each peptide followed by treatment for fifteen minutes with TNFα (10 ng/ml) as indicated (+). Following lysis, nuclear extracts were made and 10 μg of protein from each sample was used for EMSA using a specific [^32P]-labeled κB-site probe. (G) Gel image showing anti-Phospho-C-Jun immunoblot and anti-β-Actin immunoblot. […] Subsequently the cells were either treated with TNFα (10 ng/ml) as indicated (toe panel) or left untreated (bottom panel) for a further four hours after which NF-κB activation was measured by luciferase assay. […]
# [2] = test system: Mouse bone marrow cells; assay: RANKL-induced osteoclast differentiation of bone marrow cells; format: cell-based; settings: M-CSF 20 ng/ml + RANKL 100 ng/ml, six days, peptide 6.25, 12.5 and 25 mM
# From the text: Osteoporosis is a severely debilitating disease characterized by an extensive loss of bone mass that is mediated by osteoclast-dependent bone resorbtion (Suda et al., (1992) Endocr. Rev. 13, 66-80; Suda et al., (1999) Endocr. Rev. 20, 345-357). It is therefore possible that selective inhibition of NF-κB activation in osteoclast precursor cells would prevent osteoclast differentiation and provide the basis for therapeutically effective drugs for the treatment of osteoporosis. Therefore the effect of the NBD peptides on osteoclast differentiation was tested using a previously described in vitro model (Jimi et al., (1999) Exp. Cell Res. 247, 84-93). Mouse bone marrow cells plated into 48-well tissue culture trays were incubated with human macrophage-colony stimulating factor (M-CSF; 20 ng/ml) and human RANKL (100 ng/ml) for six days in the absence or presence of various concentrations ([…]) of either mutant or wild-type NBD peptide. The cells were then fixed and stained for the osteoclast phenotypic marker tartrate-resistant acid phosphatase (TRAP) and TRAP-positive mutinucleated cells containing more than three nuclei were counted as osteoclasts. Triplicate samples were counted and results were calculated as means±SD.
# [3] = biological target: T2, IKKβ-NEMO interaction (Homo sapiens, UniProt Q9Y6K9); assay: In vitro GST pull-down of IKKβ/NEMO in the presence of NBD peptides; format: binding; settings: peptide 125, 500 or 1000 μM
# T2 construct: bacterially expressed version of full length NEMO fused at its NH2-terminus to glutathione S-transferase; made in house; host or cells: bacteria (GST-NEMO); in vitro translation (IKKβ)
# T2 sequence (Q9Y6K9 whole entry, the tested form may be a part): as the sequence (Q9Y6K9 whole entry, one chain of several) above
# Method: (A) Sequences of wild-type (SEQ ID NO:18) and mutant (SEQ ID NO:19 forms of IKKβ NBD peptide. (B) GST-pull-down analysis was performed using either GST-NEMO-in vitro translated IKKβ (upper panel) or GST-IKKβ-(644-756)-in vitro translated NEMO (lower panel). The assay was performed in the absence (no peptide) or presence of increasing concentrations ([…], 500 or 1000 μM) of either mutant (MUT) (SEQ ID NO:19) or wild-type (WT) NBD (SEQ ID NO:18). (C) HeLa cells were incubated with either peptide (200 μM) for the times indicated. Following lysis, the IKK complex was immunoprecipitated using anti-NEMO and the resulting immunoblot probed with anti-IKKβ. (D) Gel image showing anti-NEMO immunoprecipitation. (E) Gel image showing anti-FLAG immunoblot. (F) HeLa cells were incubated for three hours with increasing concentrations: 50, 100 or 200 μM) of each peptide followed by treatment for fifteen minutes with TNFα (10 ng/ml) as indicated (+). Following lysis, nuclear extracts were made and 10 μg of protein from each sample was used for EMSA using a specific [^32P]-labeled κB-site probe. (G) Gel image showing anti-Phospho-C-Jun immunoblot and anti-β-Actin immunoblot. (H) HeLa cells were transfected for forty-eight hours with pBIIX-luciferase then incubated for two hours in the absence (control) or presence of mutant or wild-type NBD peptide (100 and 200 μM of each). Subsequently the cells were either treated with TNFα (10 ng/ml) as indicated (toe panel) or left untreated (bottom panel) for a further four hours after which NF-κB activation was measured by luciferase assay.
# The sequences of the two NBD peptides used in t its study were [[…]][…] (wild-type) (SEQ ID NO: 18) and [[…]][…] (mutant) (SEQ ID NO: 19; FIG. 5A). The antennapedia homeodomain sequence (Derossi et al., (1994) J. Biol. Chem. 269, 10444-10450; U.S. Pat. No. 5,888,762; U.S. Pat. No. 6,015,787; U.S. Pat. No. 6,080,724) is bracketed and the positions of the W to A mutations are underlined. Both peptides were dissolved in DMSO to a stock concentration of 20 mM. For all experiments DMSO alone controls were no different from no peptide controls.
# The mutant was identical except that the tryptophan residues (W739 and W741) in the NBD were mutated to alanine. […] To test the ability of the NBD peptides to enter cells and inhibit the IKKβ-NEMO interaction, HeLa cells were incubated with the peptides for different time periods and immunoprecipitated the IKK complex using anti-NEMO. In agreement with the in vitro data (FIG. 5B), wild-type but not mutant disrupted the formation of the endogenous IKK complex (FIG. 5C).
# [4] = test system: mice (PMA-induced ear edema); assay: PMA-induced ear edema in mice; format: in vivo; settings: topical 200 μg/ear
# Method: The NBD peptide was tested for its ability to inhibit inflammatory responses in animals using two distinct models of acute inflammation. In the first model, ear edema was induced in mice using phorbol-12-myristate-13-acetate (PMA) and the effects of topical administration of the NBD peptides were measured. Ear edema using PMA was induced in replicate groups of age and sex matched mice as previously described (Chang et al., (1987) Eur. J. Pharmacol. 142, 197-205). Twenty μl of either NBD peptides (200 μg/ear), dexamethasone (40 μg/ear) or vehicle (DMSO:Ethanol; 25:75 v/v) was applied topically to the right ear of mice thirty minutes before and thirty minutes after the application of 20 μl of PMA (5 μg/ear) dissolved in ethanol. Ear swelling was measured six hours after PMA application using a microgauge and expressed as the mean difference in thickness between the treated (right) and untreated (left) ears. Statistical analysis of the data was performed using the students t-test. A value of p<0.05 was considered statistically significant.
# [5] = test system: NF-κB; assay: EMSA of nuclear extracts from TNFα-treated HeLa cells; format: cell-based, human; settings: peptide 50, 100 or 200 μM 3 h, TNFα 10 ng/ml 15 min
disruption of the formation of the endogenous IKK complex [1],inhibition of in vitro pull-down of [35S]-labeled IKKβ by GST-NEMO [3],inhibition of in vitro pull-down of [35S]-labeled NEMO by GST-IKKβ-(644-756) [3],Substance,inhibition of osteoclast differentiation (TRAP-positive multinucleated cells) [2],effect on PMA-induced ear thickening ([4]; p=0.09),inhibition of TNFα-induced activation and nuclear translocation of NF-κB (EMSA) [5],inhibition of osteoclast differentiation (TRAP-positive multinucleated cells) ([2]; listed as wild type),inhibition of osteoclast differentiation (TRAP-positive multinucleated cells) ([2]; listed as wild-type),"inhibition of PMA-induced ear thickening ([4]; 30 min before and after PMA 5 μg/ear, 6 h)"
not,not,not,"[DRQIKIWFQNRRMKWKK]TALDASALQTE (DRQIKIWFQNRRMKWKKTALDASALQTE; Description of Artificial Sequence: Synthetic Mutant NBD peptide) [identical to wild-type NBD peptide except W739 and W741 mutated to alanine, reference compound]",not,insignificant,,,,
disrupted,dose-dependently inhibited,dose-dependently inhibited,[DRQIKIWFQNRRMKWKK]TALDWSWLQTE (DRQIKIWFQNRRMKWKKTALDWSWLQTE; Description of Unknown: Unknown wildtype NBD peptide) [wild-type NBD peptide],,,inhibited,dose-dependently inhibited,dose dependent inhibition,77±3%
